According to patent publication CN114874324A (dated 2022):

T1: 可溶性LAG-3蛋白标准品(R&D Systems) (human, UniProt P18627 23-450, limits assumed)
T1 construct: also called sLAG-3蛋白; sLAG-3
T1 sequence (looked up): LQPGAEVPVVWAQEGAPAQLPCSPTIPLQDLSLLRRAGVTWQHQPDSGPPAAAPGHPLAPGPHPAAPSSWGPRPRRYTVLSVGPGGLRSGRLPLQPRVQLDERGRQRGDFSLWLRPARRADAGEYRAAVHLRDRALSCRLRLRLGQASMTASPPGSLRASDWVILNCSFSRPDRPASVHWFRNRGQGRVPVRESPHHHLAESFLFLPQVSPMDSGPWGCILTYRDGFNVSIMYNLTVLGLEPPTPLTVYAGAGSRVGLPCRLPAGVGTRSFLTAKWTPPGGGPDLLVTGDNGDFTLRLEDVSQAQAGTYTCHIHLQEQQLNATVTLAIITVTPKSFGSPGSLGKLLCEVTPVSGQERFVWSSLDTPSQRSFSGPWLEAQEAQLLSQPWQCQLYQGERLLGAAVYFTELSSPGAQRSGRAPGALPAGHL


Legend:
[1] = target: T1, 可溶性LAG-3蛋白标准品(R&D Systems); experiment: sandwich ELISA of the kit (4F4 and 4E12 as the antibody pair)
[2] = target: T1, 可溶性LAG-3蛋白标准品(R&D Systems); experiment: sandwich ELISA, wells pre-coated with 4E12

| binding result [1] | binding result [2] | Binder |
| --- | --- | --- |
| binds |  | LAG-3-4F4抗体 (antibody, V domains shown, Mouse (BALB/c) hybridoma monoclonal antibody; also called 抗人LAG-3-4F4单克隆抗体; LAG-3包被抗体) VH: QLQLKESGPEVVRPGVSVKISCKGSGYTFTDYAMYWVKQSHAKSLEWIGVISTYNGNTNYNQRFKGKATMTVDKSSSTAYMELARLTSEDSAIYYCARERGAMDYWGQGTSVTVSS VL: DVLMTQTPLSLPVSLGDQASISCRSSQSIVHNNGNTYLEWYLQKPGQSPKLLIYKVSSRFSGVPDRFSGSGSGTDFTLKISRVEAEDLGIYYCFQGSHVPPTFGGGTKLEIK |
|  | binds | LAG-3-4E12抗体 (antibody, V domains shown, Mouse (BALB/c) hybridoma monoclonal antibody; also called LAG-3-4E12单克隆抗体; 抗LAG-3单抗(克隆:4E12)) VH: EVKLVESGGGLVQPGGSLKLSCAVSGFAIRSYDMSWVRQTPEKRLEWVATISSGGSYSYYPDSVKGRFTISRDNARNTLYLQMSSLRSEDTALYYCASLSTAPAYWGQGTLVTVSA VL: DIVMTQSQKFMSTSVGDRVSVTCKASQNVGTNVAWYQQKPGQSPKALIYSASYRYSGVPDRFTGSGSGTDFTLTISNVQSEDLAEYFCQQYNTYPHMYTFGGGTKLEIK |
